# How the values were obtained:
# Recombinant Human DLL4 [1] = target: T1, Recombinant Human DLL4 (human, UniProt Q9NR61 27-524); experiment: ELISA, DLL4 coated on plate, Fab at 100 nM, absorbance at 450 nm minus blank
# T1 construct: also called delta-like protein 4; rHuman DLL4
# Recombinant Human DLL4 [2] = target: T2, Recombinant Human DLL4 (human, UniProt Q9NR61 27-524); experiment: ELISA, DLL4 coated on the plate, Fab at 100 nM, signal minus blank
# T2 construct: Bought recombinant human DLL4 (R&D Systems Cat#1506-D4/CF); also called delta-like protein 4; Delta-like 4
ELISA Signal-blank (100 nM Fab) (Recombinant Human DLL4 [1]),ELISA Signal-blank (100 nM Fab) (Recombinant Human DLL4 [2]),Binder
0.093,–,"Fab VH5-51_IGHD5-18*01>3_IGHJ4*01 G100K/G104T G24T/S28R/G35V (H:KT TRV) & V3-4_IGLJ1*01 T78S (Fab, V domains shown, Fab; expressed in E. coli with CH1 (Plasmid A, His6 and Flag tags) and lambda CL (Plasmid E); also called H:KT TRV & T78S) VH: EVQLVQSGAEVKKPGESLKISCKTSGYRFTSYWIVWVRQMPGKGLEWMGIIYPGDSDTRYSPSFQGQVTISADKSISTAYLQWSSLKASDTAMYYCARRKYSYTYDYFDYWGQGTLVTVSS VL: QTVVTQEPSFSVSPGGTVTLTCGLSSGSVSTSYYPSWYQQTPGQAPRTLIYSTNTRSSGVPDRFSGSILGNKAALTISGAQADDESDYYCVLYMGSGISYVFGTGTKVTVL"
0.395,–,"Fab VH5-51_IGHD5-18*01>3_IGHJ4*01 G100K/G104T G24T/S28R/G35V (H:KT TRV) & V3-4_IGLJ1*01 S26A (Fab, V domains shown, Fab; expressed in E. coli with CH1 (Plasmid A, His6 and Flag tags) and lambda CL (Plasmid E); also called H:KT TRV & S26A) VH: EVQLVQSGAEVKKPGESLKISCKTSGYRFTSYWIVWVRQMPGKGLEWMGIIYPGDSDTRYSPSFQGQVTISADKSISTAYLQWSSLKASDTAMYYCARRKYSYTYDYFDYWGQGTLVTVSS VL: QTVVTQEPSFSVSPGGTVTLTCGLSAGSVSTSYYPSWYQQTPGQAPRTLIYSTNTRSSGVPDRFSGSILGNKAALTITGAQADDESDYYCVLYMGSGISYVFGTGTKVTVL"
0.186,–,"Fab VH5-51_IGHD5-18*01>3_IGHJ4*01 G100K/G104T G24T/S28R/G35V (H:KT TRV) & V3-4_IGLJ1*01 L92A (Fab, V domains shown, Fab; expressed in E. coli with CH1 (Plasmid A, His6 and Flag tags) and lambda CL (Plasmid E); also called H:KT TRV & L92A) VH: EVQLVQSGAEVKKPGESLKISCKTSGYRFTSYWIVWVRQMPGKGLEWMGIIYPGDSDTRYSPSFQGQVTISADKSISTAYLQWSSLKASDTAMYYCARRKYSYTYDYFDYWGQGTLVTVSS VL: QTVVTQEPSFSVSPGGTVTLTCGLSSGSVSTSYYPSWYQQTPGQAPRTLIYSTNTRSSGVPDRFSGSILGNKAALTITGAQADDESDYYCVAYMGSGISYVFGTGTKVTVL"
0.478,–,"Fab VH5-51_IGHD5-18*01>3_IGHJ4*01 G100K/G104T G24T/S28R/G35V (H:KT TRV) & V3-4_IGLJ1*01 S28A (Fab, V domains shown, Fab; expressed in E. coli with CH1 (Plasmid A, His6 and Flag tags) and lambda CL (Plasmid E); also called H:KT TRV & S28A) VH: EVQLVQSGAEVKKPGESLKISCKTSGYRFTSYWIVWVRQMPGKGLEWMGIIYPGDSDTRYSPSFQGQVTISADKSISTAYLQWSSLKASDTAMYYCARRKYSYTYDYFDYWGQGTLVTVSS VL: QTVVTQEPSFSVSPGGTVTLTCGLSSGAVSTSYYPSWYQQTPGQAPRTLIYSTNTRSSGVPDRFSGSILGNKAALTITGAQADDESDYYCVLYMGSGISYVFGTGTKVTVL"
0.216,–,"Fab VH5-51_IGHD5-18*01>3_IGHJ4*01 G100K/G104T G24T/S28R/G35V (H:KT TRV) & V3-4_IGLJ1*01 G95A (Fab, V domains shown, Fab; expressed in E. coli with CH1 (Plasmid A, His6 and Flag tags) and lambda CL (Plasmid E); also called H:KT TRV & G95A) VH: EVQLVQSGAEVKKPGESLKISCKTSGYRFTSYWIVWVRQMPGKGLEWMGIIYPGDSDTRYSPSFQGQVTISADKSISTAYLQWSSLKASDTAMYYCARRKYSYTYDYFDYWGQGTLVTVSS VL: QTVVTQEPSFSVSPGGTVTLTCGLSSGSVSTSYYPSWYQQTPGQAPRTLIYSTNTRSSGVPDRFSGSILGNKAALTITGAQADDESDYYCVLYMASGISYVFGTGTKVTVL"
0.398,–,"Fab VH5-51_IGHD5-18*01>3_IGHJ4*01 G100K/G104T G24T/S28R/G35V (H:KT TRV) & V3-4_IGLJ1*01 G27A (Fab, V domains shown, Fab; expressed in E. coli with CH1 (Plasmid A, His6 and Flag tags) and lambda CL (Plasmid E); also called H:KT TRV & G27A) VH: EVQLVQSGAEVKKPGESLKISCKTSGYRFTSYWIVWVRQMPGKGLEWMGIIYPGDSDTRYSPSFQGQVTISADKSISTAYLQWSSLKASDTAMYYCARRKYSYTYDYFDYWGQGTLVTVSS VL: QTVVTQEPSFSVSPGGTVTLTCGLSSASVSTSYYPSWYQQTPGQAPRTLIYSTNTRSSGVPDRFSGSILGNKAALTITGAQADDESDYYCVLYMGSGISYVFGTGTKVTVL"
–,0.08,"Fab VH5-51_IGHD5-18*01>3_IGHJ4*01 G100K/G104T G24T/S28R/G35V (H:KT TRV) & V3-4_IGLJ1*01 V91W (Fab, V domains shown, Fab; expressed from plasmid A (CH1, His6 and Flag tags) and plasmid E (lambda CL)) VH: EVQLVQSGAEVKKPGESLKISCKTSGYRFTSYWIVWVRQMPGKGLEWMGIIYPGDSDTRYSPSFQGQVTISADKSISTAYLQWSSLKASDTAMYYCARRKYSYTYDYFDYWGQGTLVTVSS VL: QTVVTQEPSFSVSPGGTVTLTCGLSSGSVSTSYYPSWYQQTPGQAPRTLIYSTNTRSSGVPDRFSGSILGNKAALTITGAQADDESDYYCWLYMGSGISYVFGTGTKVTVL"
0.277,–,"Fab VH5-51_IGHD5-18*01>3_IGHJ4*01 G100K/G104T G24T/S28R/G35V (H:KT TRV) & V3-4_IGLJ1*01 M94A (Fab, V domains shown, Fab; expressed in E. coli with CH1 (Plasmid A, His6 and Flag tags) and lambda CL (Plasmid E); also called H:KT TRV & M94A) VH: EVQLVQSGAEVKKPGESLKISCKTSGYRFTSYWIVWVRQMPGKGLEWMGIIYPGDSDTRYSPSFQGQVTISADKSISTAYLQWSSLKASDTAMYYCARRKYSYTYDYFDYWGQGTLVTVSS VL: QTVVTQEPSFSVSPGGTVTLTCGLSSGSVSTSYYPSWYQQTPGQAPRTLIYSTNTRSSGVPDRFSGSILGNKAALTITGAQADDESDYYCVLYAGSGISYVFGTGTKVTVL"
–,0.197,"Fab VH5-51_IGHD5-18*01>3_IGHJ4*01 G100K/G104T G24T/S28R/G35V (H:KT TRV) & V3-4_IGLJ1*01 V91T (Fab, V domains shown, Fab; expressed from plasmid A (CH1, His6 and Flag tags) and plasmid E (lambda CL)) VH: EVQLVQSGAEVKKPGESLKISCKTSGYRFTSYWIVWVRQMPGKGLEWMGIIYPGDSDTRYSPSFQGQVTISADKSISTAYLQWSSLKASDTAMYYCARRKYSYTYDYFDYWGQGTLVTVSS VL: QTVVTQEPSFSVSPGGTVTLTCGLSSGSVSTSYYPSWYQQTPGQAPRTLIYSTNTRSSGVPDRFSGSILGNKAALTITGAQADDESDYYCTLYMGSGISYVFGTGTKVTVL"
–,0.078,"Fab VH5-51_IGHD5-18*01>3_IGHJ4*01 G100K/G104T G24T/S28R/G35V (H:KT TRV) & V3-4_IGLJ1*01 V91P (Fab, V domains shown, Fab; expressed from plasmid A (CH1, His6 and Flag tags) and plasmid E (lambda CL)) VH: EVQLVQSGAEVKKPGESLKISCKTSGYRFTSYWIVWVRQMPGKGLEWMGIIYPGDSDTRYSPSFQGQVTISADKSISTAYLQWSSLKASDTAMYYCARRKYSYTYDYFDYWGQGTLVTVSS VL: QTVVTQEPSFSVSPGGTVTLTCGLSSGSVSTSYYPSWYQQTPGQAPRTLIYSTNTRSSGVPDRFSGSILGNKAALTITGAQADDESDYYCPLYMGSGISYVFGTGTKVTVL"

# Source: US20120316071A1 (published 2012)
